Target: pro-uPA (pro-urokinase-type plasminogen activator, single-chain zymogen form of uPA) (UniProt P00749)

soluble His-tagged hepsin comprising the entire extracellular domain of human hepsin (Arg45-Leu417), sequence (chain, as listed by the source): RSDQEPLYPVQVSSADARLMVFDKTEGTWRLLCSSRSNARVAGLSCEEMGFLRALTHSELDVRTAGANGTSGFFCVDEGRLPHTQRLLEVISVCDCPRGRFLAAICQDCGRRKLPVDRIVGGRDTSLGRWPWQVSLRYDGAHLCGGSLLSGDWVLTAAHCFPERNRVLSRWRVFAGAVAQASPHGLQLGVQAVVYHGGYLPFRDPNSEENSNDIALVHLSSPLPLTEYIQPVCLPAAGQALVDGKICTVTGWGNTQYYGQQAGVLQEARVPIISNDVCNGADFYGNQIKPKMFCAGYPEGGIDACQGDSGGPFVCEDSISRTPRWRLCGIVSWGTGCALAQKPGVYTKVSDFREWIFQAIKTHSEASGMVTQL

soluble His-tagged hepsin comprising the entire extracellular domain of human hepsin (Arg45-Leu417)
cleavage of pro-uPA (SDS-PAGE, 1.5 uM pro-uPA, 15 nM hepsin): Incubation of pro-uPA with hepsin resulted in a time-dependent cleavage of the single-chain form into the two-chain form
k (first-order rate constant of pro-uPA activation): 0.0871 min⁻¹
kcat/Km of pro-uPA activation: 484000 M⁻¹ s⁻¹
